Experiment: label from the status in PepcDB records

Sequence | protein production
MRIHRLDIEAFGPFATPQHIDFDHLSAQGLFLLNGATGAGKTSILDAICFALYGSVPGARQEGKRLRSDHAAPGAEPRVVCEFSARGRRFEVTRSPAWDRPSARGRNGFTTQQAKTLLRERVAGSWEEKSSRNDEVGAELSDVLGMDREQFTRVVMLPQGDFAAFLRSKANDRLELLQKLFGTQRFEAVERQLVHQAAEAARAVQENASELKLLLDRVASEQDQLGLPAADTSAAGTEPGQEPEAWLAGVEAEVEAEWKRRQNEAAEAESLSSRLMEHFQEAQEKSQRHGRLGAAMQRRVLLELAAPRALENKEMLGKHRRAAVLSGQLEAVDSAARKLHTASARAAGLREKLDAAGLDAAKPTIALETVKASCAVLEARLPEEQRLEGITVRLAARRGELAEHLSAAEAAATVVDQLREEVSAVELEIQPLEPLADQLAEREREATAAAELVGIVARHATAASELDVITGKHLHARSASQDLRQKWLDVRELRLANAAGELAAALESGKPCAVCGSEEHPNPAQAVRTALSLAQEEEEARERFEASERALGLLAEQVSSAAQVLAGLVAQGGSADAAAAESTLADARAAALAARTAEASLEKLRVRHEALIKRIVLAQEEHDASVGAAAQASAAVHVLQEQCVALETDLAGLRGDFSSLRDRLEALEAERGLLQAAVDADRELERAEQARQDAAASLDKALSESGFASADDARREILSPADVVGLEKDLADFDAESSRLDELFGSEDLVLAAKEASIGEHPLGEAELAESKLHAANAADDARAKALSAGLAGKSAAAVARFRTEYQSLAQAGREPRNRAQMLAELADTVRGSGDNSYRMSLNAYVLAARLEQVATAASERLVAMSDGRYTLQHTDAKAARGAKSGLGLEVVDEWTGQRRDTSTLSGGESFMASLSLALGLADVVQQEAGGVDIETLFVDEGFGSLDDQALEQVMDALEGLRDGGRVVGLVSHVGEMKQRITNQLQVVKGRHGSSVRIAEAGPV | failed
MSILTIILIVLLVILLFKVGLSILRFLISVGIVLLCIYLGYQGVLWLFEHFQNFSGFIQ | failed
MICRTIVEGTTKISVPVPPPDANFPPSAAPVFYNPEMELNRDINVAATAAFVERLLSKKDILREEIRYVDAFSASGIRGLRIAGEVGIHSTMNDWSHEAFELIKENIKINGLEEKAQATRRNANVLLHEQRFHIVDVDPFGTPSPYLDAAASSAYSMLSVTATDTAPLCGAHLNSGIRKYASVPLNTEYHSEMGLRVLLGACARELAKHEKGMLPLLSHVTRHYVRTYLEVLPGSRKADKTLKSMGFVAHCPRCGFRKPVYGLAVHIEKECPECGGLTKIAGPLWLGPYREPEFCNEVISELEAHPLNTKEKVRKIITFCRDELDIPMFYDQHVICKELGASATGIESLIEALRAGGFEASRTHFTGTSFKTDAPIAEIKKIILALSG | failed
MITLNAWYVTWTELYKKKTVKMTTIYKNHSYYNSRVKNSIGKMYLQDIKTYHVQKFLNDLIDSGLAHGTVSNIRFMLSDMFDKAVLSEYIRKNPCIGVEMPKEVKKERLEHHHHHH | failed
MALYWNLRLSVKNWRSIQNNEKLIFQVLWPLKLLVALKFISTLEERLIIPESDKPHTPPEGRLPDATKGFDLLRDVFAKRMGLSDKDIVALSGSHTPISPSQS | failed
MILTRSSLVKRLTLMIMFAVIAVLVVAGISFNMLSQHHFRMLDEQALSEKLESTRHILSIQAPGTGMEELRPQLRALLGAHQDLTAEILTSEGEVLFSDLKAVQIPDKYKRADKEEMWEWQDESHNFRGITTDVEIQGQPAPGTVMLMLDITSHAHFFETLQRWFAIGLVISALVSAGIGWLVAKSGLRPVEQITKVATSISARSLQERIPLEPVPLELQTLILSFNGMLARLEDAFVRLSNFSADIAHELRTPVSNLLTHTEVVLTRKRDVDAYEENLYSNLEDLKRMSRMIDDMLFLAKSDNGLIIPEQVDIQLHDLVSKLFEYYQLLADDRGIRLTLQGKGVISGDRLMIDRAVSNILSNAVRYTPDGSGISVEIQQAADKVTLTIKNGGATIDPQHINKIFDRFYRADPARREGGPSNAGLGLAITRSIVKAHDGKVWCTSSEGVTAFNFIFPAAHRTAHIRTRH | failed
MTQPLRQYREKRDFRATAEPAGAARRPRAAARASEGLSFVIQRHQARRLHYDFRLEIDGVLVSWAVPKGPSRDPSVKRLAVHVEDHPLEYGGFSGDIPKGQYGAGHVDIWDSGVWIPRGDPRQGLRRGKLHFALRGRRLAGDWVLVRMSGEQDQWLLRKEDDEAAVPGDDAERAPATPPPAPEHAPAATPRGRRAAMPHTLAPQLATLVDSPPHGPGWSYEVKYDGYRILAACSAGGVRLVSRGNEDWQARMAPLARALGALKLGRGWLDGEVVVLDERGVADFQLLQNALDGQAEGLVFVAFDLPFWNGEDLRALPLQARQERLEDLLREVPEDAPLMLTQRLPVADDTEGKAAWNEACRLSLEGLICKRLDAPYRSGRSQGWLKLKCRPRQEFVIGGYTEPAGARRHLGALLVGLRQGRQLRYAGRVGTGFGAATLRTLGQRLAALRQDAKPFSGDVPRGRGDAAIHWVSPELVAEVNYAGITRDGLLRQASFAGLRADKPASEVRGEVAARPPAAKAATPSRRAGDGRAEVAGVRISHPDRLAYREPDYTKLQLAEYYAAIGPHILPHLRQRRVALLRCPDGAGTTCFFQKHLSQSLPAGVRRDGGHLVIESLPGLIALVQYGAIEFHTWGADTRHPDTPDRITLDLDPGPGVAWPAIVEGAQMARLLMQEVGLEPFLKTTGGKGLHLVAPLRPTQPWDTVKDFARALARQLAVALPDRFTANMAKARRERRIFVDYLRNGNGATAVAAFSARARDGAPVSMPLSWDALDAGDDLRGARWNIANALEQARRKPDPWADYAASRRTLGSRMQARLPRD | failed
TDYDNREKSADIALLKEMNSLRDIIENNSDWIWEVDVAGRYTFSSAKSIELLGRLPHEVIGKTPFDFMPKDEAHRVGKLFAEIAAERIPFAGLQNRNIRADGSEVLIESSGIPLFDHNGEFKGYRGIDRN | failed
MLNYRQLHYFWVVAKTGSIVRACEQLNLTAQTVSGQISLLEAALGVDLFQRVGRRLEMTEAGRLALPYAEQMFQLGDELESLLRSQPDEQQLLLRIGVADVVPKSIVYRLIAPTMELAEPIRITCREDKLERLLADLAIQRLDLVISDSPMPPHLDIKGYSQKLGECGVTFFATREVAERVGSDFPQCLHGAPLLIPGQETVVRGRLMRWFAEQKIQPRIIGEFDDSALMKAFGKSGSGIFVAPSVIVDEVQGQYGVQVIGQTDAVTESFYAITVERKVRHPGVVAIAESARNQLFTDAG | failed
MVMEKALTLQQMPDFIVSTIPKGQASYLVFGERSIGKKDVIDIVIKQLEKIGFRTGVEQVPSVGETYKNQTLNSIMDKITGKTEVRDKNTIIKEYDEFTRNNKEKIVIAVYGVEKLSMESKNLFLYMCRISRNRNVTLIGTYNADSTDEYDRFINLIASEDYINIIKIEKPTIEDIAFLVKKMGYKLPDDFVKEIARLTNYNIDSMKYALRYYQDLGVINDRKEINTVSFRYIPVPPTTELYYEKMINSLTDLEKNVAYLMVMLSNDIDVDSAAIILNRKRTEVLNIIRKLEDKGLVKFNGQVVGFYSDKIRRSVEKSMKTSDIAYMTSLIESSQLFMRMPPAQRMHILMKANKLDEIRDIIKEKGQSLVDGYNSVDEVIEDLEQLGNVFSEDSDVKKVLCHAYYLKGRFDKAISCYMDIKPDHDLDSMIDLSSIYSNMGKFEEAEKILEDAKNNFTDDYPQTIISYRIAALYYRMGRYKDTIDMLTPLLGKIDAENMSGVKAGILNILGNIDMTSYRYGDALKKYNEALEINRKLSNYAEISRNLNNIALIDVYTGKYDLAISILKELIETTYSTGDLVSRIYAIYNLSEIYYVIGKQEYAEGYIPLMMRILDVVSEKRVSFHIYRFLTMYYVGLLDFKMAKKYAELAIENAIMEDQKIMAIIFHKIINYVLTGEDPNIDTQEIDSTNFTDDYTSTFLIALAYYYRIIENQEMAKHYVDMAEEAAYKMKIPYVIVNASFHKAVILLSIGDLDGFRRHFERMQKPPTTIQFYDDSFEIFRSIYDGNFDAIKSSKYRIIEEDHVNGTLKGLMPVILNAFALYKFSGIPDDLHHLINVTPEPYSRLLALITNYH | failed
